Earlier results on 1 substance are cited in PMC7570734.

Data set [1] addresses alpha-factor (Saccharomyces cerevisiae) (UniProt P01149).
Data set [2] shares this target. The source holds these as a separate data set.

Like-named read-outs stand apart in the source and are kept apart here.

As usually defined, the Kd is the constant that tells how readily two partners part at equilibrium. Ste2p (from UniProt D6VTK4): the Kd in data set [1] was more than 150 nM; in data set [2], 17 nM.
